Reference: PMC9675734, “Phosphorylation disrupts long-distance electron transport in cytochrome c” (Nature Communications, 2022)

Molecular target: T1, soluble domain of Arabidopsis thaliana cytochrome c1 (Arabidopsis thaliana, UniProt Q9FKS5 64-265)
T1 construct: Hemeprotein; Immobilised on Au(111) through Cys10 (AFM, EC-STM) or by amine coupling on the biochip (SPR); also called Cc1; plant cytochrome Cc1; source: E. coli BL21 (DE3), pET-Cc1 with pEC86 (ccmABCDEFGH), purified (Nuvia Q anion exchange, ENrich SEC 70)
T1 sequence (looked up): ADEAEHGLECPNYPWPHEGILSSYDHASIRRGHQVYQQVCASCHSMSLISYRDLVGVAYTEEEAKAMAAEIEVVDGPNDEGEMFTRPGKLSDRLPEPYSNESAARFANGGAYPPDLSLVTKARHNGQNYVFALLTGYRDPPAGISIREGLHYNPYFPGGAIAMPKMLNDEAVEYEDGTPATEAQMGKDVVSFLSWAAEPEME
Experiment: SPR; SPRi; Cc1 immobilised by direct amine coupling on a CS SPRi-Biochip (10 and 15 uM drops); WT or Y48pCMF Cc flowed at 2.5 to 10 uM, 50 uL/min; 298 K; 10 mM sodium phosphate buffer pH 6.5; reference spots with rabbit serum albumin subtracted; 1:1 binding model
Settings: both partners purified

B1: Homo sapiens WT cytochrome c (natural protein)
chain: not shown
notes: cytochrome c, human, CYCS gene in plasmid pBTR1-WT; Hemeprotein (heme c attached by the co-expressed heme lyase); Used as analyte in SPR; also called Cc; WT Cc; source: E. coli BL21 (DE3), pBTR1-WT with yeast Cc heme lyase (CYC3), purified (Nuvia S cation exchange)
- Kd: 527 nM
- koff: 0.00318 s⁻¹
- kon: 6540 M⁻¹ s⁻¹
